Measured values published in the supplement of paper PMC10567573.

B1: HDAC6 (parent)
chain: DLMETTQYMNEGELRVLADTYDSV
B2: KCNA3 (parent)
chain: YQSGGRIRRPVNVPIDIFSEEIRF

Variants of: B1
Experiment: protein stability index of a GFP-peptide fusion (GPS, HEK-293T) (PSI 1-6); higher = more stable
Details: c terminus: a fixed tail appended
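Also: lentivirally expressed fusions sorted by FACS into six bins by GFP to DsRed ratio, PSI derived from sequencing read proportions per bin multiplied by bin number.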

Protein stability index: each site, then its substitutions
V24: H 2.78 | G 2.1 | C 1.42 | E 2.01 | D 2.41 | W 1.66 | S 1.56 | L 2.11 | F 1.92 | I 2.34 | K 1.77 | Y 1.49 | N 2.77 | P 2.11 | T 1.63 | M 2.24 | Q 1.84 | R 1.86 | A 1.73
D22: Q 2.29 | V 1.74 | L 2.14 | C 2.18 | Y 2.7 | F 1 | N 1.48 | K 1.75 | T 1.65 | H 2 | E 1.57 | P 1.92 | A 1.27 | S 1.55 | G 1.76 | I 2.16 | R 2.91
T20: A 2.49 | D 2.83 | M 1.62 | Y 2.06 | N 2.21 | L 1.04 | R 3.07 | I 2.91 | F 2.27 | Q 2.58 | P 1.99 | H 2.71 | W 1.77 | S 2.13 | K 1.96 | E 2.41
A18: T 1.94 | V 2.4 | Q 1.62 | F 1.86 | Y 1.87 | N 1.65 | E 2.11 | L 1.75 | K 2.18 | W 1.7 | P 3.97 | G 2.86 | H 2.06 | M 1.12 | D 2.82 | S 2.09 | I 1.83 | C 2.47 | R 2.12
L17: N 4.55 | W 2.33 | V 1.64 | C 3.03 | A 2.33 | S 4.34 | I 2.77 | T 3.59 | P 4.47 | D 5.03 | R 2.97 | Y 1.99 | Q 3.11 | M 2.01 | H 2.12 | F 2.05 | G 3.86 | K 2.75
D19: Q 1.92 | Y 1.44 | F 2.78 | I 2.55 | K 2.52 | L 1.64 | E 2.03 | R 2.56 | T 1.83 | G 2.6 | H 2.42 | N 1.79 | P 2.67 | S 2.12
S23: D 1.92 | P 1.46 | L 1.94 | E 1.97 | R 2.14 | Q 1.24 | V 1.63 | G 2.72 | N 2.66 | W 3.46 | T 2.05 | K 2.03 | I 1.86 | M 2.33 | Y 1.58 | H 2.37 | C 2.48
R15: M 1.89 | G 3.24 | C 1.5 | T 2.58 | I 2.2 | Y 2.39 | D 3.8 | A 1.77 | F 2.64 | L 1.5 | P 4.61 | N 2.67 | Q 1.76 | V 2.37 | K 2.27 | H 2.03 | S 2.09 | E 2.01
E13: G 4.06 | F 2.66 | N 3.96 | S 3.56 | V 3.53 | W 2.32 | L 2.63 | Q 4.13 | H 3.2 | P 3.74 | Y 2.83 | R 3.63 | M 2.65 | K 3.69 | T 3.84 | I 2.47
Y21: M 1.44 | H 1.72 | C 2.2 | D 3.31 | L 1.96 | S 2.26 | A 2.69 | N 1.61 | W 2 | G 2.66 | T 3.1 | K 2.74 | F 2.24 | I 1.79 | P 2.04 | Q 3.21
L14: Y 1.87 | H 2.29 | F 1.74 | D 2.32 | Q 2.28 | P 4.29 | N 3.03 | A 2.11 | S 2.21 | W 2.48 | E 2.07 | M 1.62 | V 2.83 | T 3.56 | G 2.92 | K 2.96 | I 2.26 | C 1.97
V16: H 4.62 | W 3.54 | S 4.42 | Q 4.23 | R 4.01 | C 2.72 | L 3.27 | I 2.1 | K 3.91 | T 4.2 | M 3.99 | A 3.72 | E 4.75 | P 4.81 | D 4.54 | F 3.61 | N 4.06 | G 4.03 | Y 3.9

Variants of: B2
Experiment: as above
Details: c terminus: a fixed tail appended

Protein stability index of substitutions, site by site:
D16: F 1.33 | L 1.88 | C 1.41 | V 1.19
V11: A 2.49 | G 1.79 | R 2.37 | Q 2.03 | N 2.42 | T 1.98 | C 2.39
R23: E 2.19 | L 1.28 | K 2.3 | C 1.23 | V 1.68
N12: K 1.91 | A 1.8 | Q 2.34 | R 1.28 | C 2.62
S19: A 1.83 | G 2.52 | D 2.43 | L 1.41 | H 1.49 | N 2.74 | E 1.87 | R 1.64
I22: N 2.82 | A 1.34 | M 2.29 | T 2.2 | F 1.69 | P 1.98 | Y 1.8 | L 2.06
E21: C 2.51 | V 1.97 | F 1.62 | P 1.65 | N 2.33
I7: M 2.44 | E 2.17 | R 1.86 | L 1.69 | K 3.34 | Q 2.52 | Y 2.04 | H 1.57 | W 2.77 | N 1.73 | S 2.38
G5: P 2.32 | N 2 | E 2.58 | H 2.9 | Y 1.49 | Q 2.5 | C 1.91 | V 2.05
S3: Q 2.44
V13: E 2.14 | Q 2.42 | N 2.13 | C 1.78 | L 1.95
E20: N 2.52 | G 1.37
Q2: P 2.07 | R 2.07 | L 2.41 | W 1.87 | C 2.19 | K 1.92
P14: Q 3.61 | E 1.43 | A 1.81 | D 1.85 | C 1.33
F18: K 1.99 | P 2.55 | H 2.29
R6: A 1.9 | P 1.91 | E 2.34 | H 2.23 | K 1.59 | D 2.15
I17: W 1.23 | K 2.05
R9: Q 1.87 | F 1.81 | G 2.23 | I 2.27 | P 2.26 | E 2.26
R8: A 2.57 | I 3.3 | Y 3.3
G4: F 1.83 | D 2.07 | I 2.06 | S 3.01 | W 2
Y1: M 2.42 | E 2.74 | C 2.49 | A 3.31 | F 1.83 | H 2.98 | S 3.58
P10: M 1.62 | V 1.91 | G 2.48
I15: H 2.16 | E 2.11 | S 2.69 | M 2.13 | D 2.33 | F 1.48
F24: P 2.26 | Q 2.31 | H 2.4 | I 2.47 | K 1.94 | W 1.66
